This is an account of results in US20240228542A1, “LYTIC DOMAIN FUSION CONSTRUCTS, CHECKPOINT INHIBITORS, AND METHODS OF MAKING AND USING SAME” (A28 Therapeutics Inc., priority 2020, published 2024).

One assay deals with OVCAR-3. Description: Cytotoxicity in OVCAR-3 ovarian cancer cells. In kind it is cell-based. Conditions: OVCAR-3 ovarian cancer cell line; read-out: IC50 in Human Cancer Cell Lines. As to the method:
(§1) MDA-MB-435S.luc cells were grown in Leibovitz's L 15 medium, 10% fetal bovine serum, 0.01 mg/ml bovine insulin, 100 IU/ml penicillin, 100 microg/ml streptomycin. The cells were cultured in tight closed flasks. The incubations were conducted using 96 well plates at 10,000 cells per well. Cells were typically seeded into 96 well plates and media was replaced after 48 hours of incubation. Each assay was conducted at increasing concentrations of 0, 0.001, 0.01, 0.05, 0.1, 0.5, 1, 2, 5, 10 and 100 micromolar doses of lytic peptide-binding domain conjugate. Each lytic peptide-binding domain conjugate provided in lyophilized form and was freshly dissolved in saline and added to cells. The duration of incubation was typically 24 h, and cell viability assays were conducted using formazan conversion assays (MTT assay). Controls contained saline or 0.1% triton as reference for 0 and 100% cell death, respectively.
(§2) To ascertain the IC50 of various fusion constructs on different human cancer cell lines compared to cisplatinum, IC50 of fusion constructs were evaluated as in Table 3.

A further assay relates to AN3-CA. The assay can be described thus: Cytotoxicity in AN3-CA endometrial cancer cells. In kind it is cell-based. The following applies: AN3-CA endometrial cancer cell line; read-out: IC50 in Human Cancer Cell Lines. As to the method: as §1, §2
The subject of the next assay is SKOV-3. Description: Cytotoxicity in SKOV-3 ovarian cancer cells. Format: cell-based. The following applies: SKOV-3 ovarian cancer cell line; read-out: IC50 in Human Cancer Cell Lines. As to the method: as §1, §2
For another assay, the system named is OVCAR-3 xenograft. Description: OVCAR-3 ovarian cancer xenograft. In kind it is in vivo, Nu/Nu mice. Conditions: for tumor volume: OVCAR-3 xenograft, CLIP71 2 mg/kg, cisplatinum 10 mg/kg. As to the method: In brief, Nu/Nu female mice, inbred strain, age 5 weeks (Harlan-Sprague Dawley) were injected subcutaneously with a NIH:OVCAR-3 cells/Matrigel suspension (4.6×10^6 cells/mouse). Treatment was started on day 33 after tumor cell injection when the tumors were established and continued on days 41 and 47. The doses for the 3 weekly injections were 0.02, 0.2 and 2 mg/kg body weight, given as a single bolus intravenous injection via lateral tail vein administered once a week for three weeks on days 33, 41 and 47. Necropsies were conducted on day 52. Data are presented as mean […]SEM. Arrows show dosing.
A group of 9 tumor bearing mice was sacrificed on day 33 and served as baseline group. All mice were necropsied 51-52 days after tumor cell injection. Tumor volumes and bodyweights were recorded twice weekly during the study, as well as overall veterinarian examination of mice was conducted.
Primary tumors, liver, kidney, pancreas, heart, lung, and spleen were collected, fixed in formalin and prepared for histological evaluation. Tumor weights were measured at necropsy, part of the tumors were frozen at −80° C. for LH/CG and LHRH receptor assay determination.
As a biomarker for drug activity, CA 125 was determined in serum, collected from each individual mouse at necropsy using a Enzyme Linked Immunoassay for quantitative determination of ovarian cancer antigen CA125 (Assay kit Genway, Biotech, Inc. San Diego, CA, Catalog #40-052-115009, #BC-1013 according to the manufacturer).
LHRH receptor levels were assessed from formalin fixed tumors. Quantitative immunoperoxidase image analysis was conducted with the Ventana Image Analysis System (VIAS) adjunctive computer assisted image analysis system functionally connected to an interactive microscope (Axio Imager). The quantitative analysis was conducted with the program for quantification of Her2/neu receptor that included morphometric and colorimetric analysis. Receptor status results were reported as percentage of cells showing positive staining of the LHRH receptors under the following criteria: 0 non-immunoreactive, 1+: 1-25% positive, 2+: 26-50% positive, 3+: 51-75% positive cells.

A further assay relates to LNCaP. The assay can be described thus: Cytotoxicity in LNCaP prostate cancer cells. The following applies: LNCaP prostate cancer cell line; read-out: IC50 in Human Cancer Cell Lines. In kind it is cell-based. As to the method: as §1, §2
Assay [1] deals with chorionic gonadotrophin (CG) receptor, on MDA-MB-435S.luc cells (human) (UniProt P22888). Description: cell-based or functional assay.
The next assay concerns MDA-MB-435S cells. The following applies: reported; cited from earlier work.
For assay [2], the target named is T1, luteinizing hormone-releasing hormone receptor (LHRH-R), on murine cancer cell lines (mouse) (UniProt Q01776).
T1 sequence (looked up): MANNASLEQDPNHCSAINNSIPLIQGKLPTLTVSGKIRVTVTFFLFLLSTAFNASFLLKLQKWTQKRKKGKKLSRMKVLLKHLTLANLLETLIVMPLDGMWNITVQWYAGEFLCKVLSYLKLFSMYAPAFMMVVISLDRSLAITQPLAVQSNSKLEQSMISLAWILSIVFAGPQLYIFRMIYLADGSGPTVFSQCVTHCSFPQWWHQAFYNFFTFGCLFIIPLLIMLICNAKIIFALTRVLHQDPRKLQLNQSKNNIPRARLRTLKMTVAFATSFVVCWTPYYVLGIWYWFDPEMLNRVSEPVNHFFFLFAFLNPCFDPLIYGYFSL
The assay can be described thus: cell-based or functional assay.

Assay [3] has as its target T2, luteinizing hormone-releasing hormone (LHRH) receptor, on human cancer cell lines (human) (UniProt P30968).
T2 sequence (looked up): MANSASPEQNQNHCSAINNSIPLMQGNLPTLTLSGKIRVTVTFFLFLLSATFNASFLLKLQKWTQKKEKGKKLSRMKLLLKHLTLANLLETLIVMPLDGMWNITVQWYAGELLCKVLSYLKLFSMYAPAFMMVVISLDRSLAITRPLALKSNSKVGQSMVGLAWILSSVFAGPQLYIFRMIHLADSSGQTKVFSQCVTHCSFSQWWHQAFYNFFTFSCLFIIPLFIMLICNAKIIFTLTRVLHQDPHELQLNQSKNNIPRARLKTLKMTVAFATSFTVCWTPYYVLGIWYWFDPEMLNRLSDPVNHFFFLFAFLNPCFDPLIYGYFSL
Description: cell-based or functional assay.

Take `N.N.[Cl][Pt][Cl]` [Cisplatinum, reference compound]: the IC50 amounted to 184 µM in the assay with OVCAR-3, 11.8 ± 0.16 µM in the assay on AN3-CA, 321 ± 10 µM in the assay on SKOV-3 and 19.9 ± 1.4 µM in the assay with LNCaP. Further, in the assay on OVCAR-3 xenograft (OVCAR-3 xenograft at necropsy), the tumor weights entry was “not effective in reducing tumor weights”. Besides, the tumor volume result in the assay on OVCAR-3 xenograft is listed as “no reduction in tumor volume”; in the assay with OVCAR-3 xenograft (listed as cisplatinum), “tumor growth was observed”.

As to Phor21-βCG-ala (323033) (peptide), the IC50 of cytotoxicity, MDA-MB-435S.luc cells (carry CG receptors) in [1] worked out at 2.3 µM.

For the compound `COc1cccc2c1C(=O)c1c(O)c3c(c(O)c1C2=O)C[C@@](O)(C(=O)CO)C[C@@H]3O[C@H]1C[C@H](N)[C@H](O)[C@H](C)O1` [doxorubicin], the “time to destroy human melanoma cells in vitro” value with MDA-MB-435S cells was 4 h.

Regarding Phor18-LHRH (338613) (peptide), in assay [2], the IC50 of cell viability, murine ovarian cancer cell lines, 72 hours lay within 1 to 1.3 µM; the IC50 of cytotoxicity (CellTiter Glo), EMT-6 cells, 4 h was found to be 5.8 µM; the IC50 of cytotoxicity (CellTiter Glo), EMT-6 cells, 8 h is 5.7 µM; the IC50 of cytotoxicity (CellTiter-Glo), 2C12 cells, 24 h is 1.02 µM. In [2], this compound had an IC50 of cytotoxicity (CellTiter-Glo), ID8 cells, 24 h of 1.37 µM; an IC50 of cytotoxicity (CellTiter-Glo), IF5 cells, 24 h of 1.01 µM; an IC50 of cytotoxicity (CellTiter-Glo), IG10 cells, 24 h of 1.03 µM; an IC50 of cytotoxicity (CellTiter-Glo), cell line printed as 242, 24 h of 1.38 µM. In assay [3], the IC50 of cytotoxicity (MTT), MDA-MB-435S cells, 0.5 hour came to 1.2 µM; the IC50 of cytotoxicity (MTT), MDA-MB-435S cells, 1 hour came to 0.6 µM; the IC50 of cytotoxicity (MTT), OVCAR-3 cells, increasing incubation time, value 1 of 7 is 6.7 µM; the IC50 of cytotoxicity (MTT), OVCAR-3 cells, increasing incubation time, value 2 of 7 came out at 5.6 µM. For the same compound, in [3], the IC50 of cytotoxicity (MTT), OVCAR-3 cells, increasing incubation time, value 3 of 7 was determined as 5.3 µM; the IC50 of cytotoxicity (MTT), OVCAR-3 cells, increasing incubation time, value 4 of 7 is 1.6 µM; the IC50 of cytotoxicity (MTT), OVCAR-3 cells, increasing incubation time, value 5 of 7 was determined as 1.5 µM; the IC50 of cytotoxicity (MTT), OVCAR-3 cells, increasing incubation time, value 6 of 7 amounted to 0.5 µM. The compound further returned an IC50 of cytotoxicity (MTT), OVCAR-3 cells, increasing incubation time, value 7 of 7 in [3] of 0.5 µM.

As a reminder, the IC50 is the midpoint of a concentration-inhibition curve.
